Data published in US20040214773.

Tests used:
human cathepsin H = target: T1, human cathepsin H (UniProt P09668)
T1 sequence: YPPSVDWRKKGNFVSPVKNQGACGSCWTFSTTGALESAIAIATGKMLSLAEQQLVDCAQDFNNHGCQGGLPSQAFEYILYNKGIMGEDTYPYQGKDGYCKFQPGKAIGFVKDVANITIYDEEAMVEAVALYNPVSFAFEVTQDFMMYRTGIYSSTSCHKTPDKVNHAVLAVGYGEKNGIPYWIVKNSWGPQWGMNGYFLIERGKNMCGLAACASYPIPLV

human granzyme A = target: T2, human granzyme A (UniProt P12544)
T2 sequence: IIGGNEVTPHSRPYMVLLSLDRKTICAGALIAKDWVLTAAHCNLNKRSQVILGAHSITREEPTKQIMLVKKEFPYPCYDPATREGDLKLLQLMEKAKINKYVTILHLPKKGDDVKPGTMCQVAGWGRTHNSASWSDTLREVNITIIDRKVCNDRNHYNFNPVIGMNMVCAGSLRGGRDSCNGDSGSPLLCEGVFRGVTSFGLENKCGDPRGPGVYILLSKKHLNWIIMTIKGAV

human elastase = human elastase (UniProt P08246)
Chain of human elastase (P08246 30-247): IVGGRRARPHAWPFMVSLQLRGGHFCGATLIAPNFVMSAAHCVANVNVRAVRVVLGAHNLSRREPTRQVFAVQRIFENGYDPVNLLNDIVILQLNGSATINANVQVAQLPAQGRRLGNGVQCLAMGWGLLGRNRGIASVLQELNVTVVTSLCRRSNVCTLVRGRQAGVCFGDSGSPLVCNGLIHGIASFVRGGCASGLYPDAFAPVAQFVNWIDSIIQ

human cathepsin B = human cathepsin B (UniProt P07858)
human cathepsin L = human cathepsin L (UniProt P07711)
Chain of human cathepsin L (P07711 114-333): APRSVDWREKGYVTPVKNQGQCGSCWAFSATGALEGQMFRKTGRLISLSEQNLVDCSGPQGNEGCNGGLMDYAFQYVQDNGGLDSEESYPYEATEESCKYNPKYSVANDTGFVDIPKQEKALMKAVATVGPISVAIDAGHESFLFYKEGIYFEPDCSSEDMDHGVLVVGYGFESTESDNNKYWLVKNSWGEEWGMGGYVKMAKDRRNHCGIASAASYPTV

human granzyme B = human granzyme B (UniProt P10144)
Chain of human granzyme B (P10144 21-247): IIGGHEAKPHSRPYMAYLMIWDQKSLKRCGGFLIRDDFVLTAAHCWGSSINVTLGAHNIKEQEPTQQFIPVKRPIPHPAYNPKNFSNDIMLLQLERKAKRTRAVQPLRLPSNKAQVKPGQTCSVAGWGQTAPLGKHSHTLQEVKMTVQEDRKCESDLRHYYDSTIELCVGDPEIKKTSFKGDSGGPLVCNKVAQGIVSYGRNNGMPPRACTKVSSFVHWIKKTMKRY

human cathepsin G = target: T3, human cathepsin G (UniProt P08311)
T3 sequence: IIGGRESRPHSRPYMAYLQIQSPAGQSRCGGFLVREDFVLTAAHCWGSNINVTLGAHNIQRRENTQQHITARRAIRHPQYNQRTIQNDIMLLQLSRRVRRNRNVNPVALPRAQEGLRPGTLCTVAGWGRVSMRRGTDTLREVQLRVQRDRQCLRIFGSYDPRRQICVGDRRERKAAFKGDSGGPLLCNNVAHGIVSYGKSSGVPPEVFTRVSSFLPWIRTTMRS

human cathepsin V = human cathepsin V (UniProt O60911)
Chain of human cathepsin V (O60911 114-334): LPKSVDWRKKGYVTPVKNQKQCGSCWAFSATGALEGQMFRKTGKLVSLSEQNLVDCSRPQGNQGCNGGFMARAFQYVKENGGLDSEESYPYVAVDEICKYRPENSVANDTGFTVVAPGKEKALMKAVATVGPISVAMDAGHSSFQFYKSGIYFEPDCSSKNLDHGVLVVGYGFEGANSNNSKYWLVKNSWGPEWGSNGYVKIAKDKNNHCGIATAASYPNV

human cathepsin K = target: T4, human cathepsin K (UniProt P43235)
T4 sequence: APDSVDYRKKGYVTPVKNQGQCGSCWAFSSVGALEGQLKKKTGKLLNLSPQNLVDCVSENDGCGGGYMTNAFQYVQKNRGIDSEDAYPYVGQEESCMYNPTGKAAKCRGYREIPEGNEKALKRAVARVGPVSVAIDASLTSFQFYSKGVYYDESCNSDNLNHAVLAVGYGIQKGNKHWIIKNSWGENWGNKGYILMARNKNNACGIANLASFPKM

[1] = tested on: Spi2A-3xFLAG (murine serine protease inhibitor 2A with a C-terminal 3xFLAG epitope tag)

Substance | protease activity after incubation under the same conditions as with Spi2A (human cathepsin H) | protease activity after incubation under the same conditions as with Spi2A (human granzyme A) | protease activity after incubation under the same conditions as with Spi2A (human elastase) | protease activity after incubation under the same conditions as with Spi2A (human cathepsin B) | protease activity after incubation under the same conditions as with Spi2A (human cathepsin L) | protease activity after incubation under the same conditions as with Spi2A (human granzyme B) | protease activity after incubation under the same conditions as with Spi2A (human cathepsin G) | protease activity after incubation under the same conditions as with Spi2A (human cathepsin V) | protease activity after incubation under the same conditions as with Spi2A (human cathepsin K) | continuous hydrolysis of the cathepsin B substrate (Z-FR)2-R110, 20 nM cathepsin B with 200 or 400 nM Spi2A [1]
alkaline phosphatase tagged with C-terminal 3xFLAG (Sigma-Aldrich) | had no effect on protease activity | had no effect on protease activity | had no effect on protease activity | had no effect on protease activity | had no effect on protease activity | had no effect on protease activity | had no effect on protease activity | had no effect on protease activity | had no effect on protease activity | –
human cathepsin B | – | – | – | – | – | – | – | – | – | The enzyme was completely inhibited, within the dead time of the measurement
